Test [1] addresses ectodomain of glycoprotein B (ect-gB), Epstein-Barr virus (Epstein-Barr virus). As to the kind of experiment: native gel or EMSA. Background: A gel shift assay detects complexes by their altered migration in electrophoresis.
Test [2] has as its target virion-encoded gB expressed on EBV-positive Akata cells (Epstein-Barr virus (HHV-4), strain …, UniProt P03188, strain). As to the kind of experiment: cell-based or functional assay.
For test [3], the target named is T1, ectodomain of glycoprotein B (ect-gB), Epstein-Barr virus (Epstein-Barr virus (HHV-4), strain M81 …).
T1 chain 1: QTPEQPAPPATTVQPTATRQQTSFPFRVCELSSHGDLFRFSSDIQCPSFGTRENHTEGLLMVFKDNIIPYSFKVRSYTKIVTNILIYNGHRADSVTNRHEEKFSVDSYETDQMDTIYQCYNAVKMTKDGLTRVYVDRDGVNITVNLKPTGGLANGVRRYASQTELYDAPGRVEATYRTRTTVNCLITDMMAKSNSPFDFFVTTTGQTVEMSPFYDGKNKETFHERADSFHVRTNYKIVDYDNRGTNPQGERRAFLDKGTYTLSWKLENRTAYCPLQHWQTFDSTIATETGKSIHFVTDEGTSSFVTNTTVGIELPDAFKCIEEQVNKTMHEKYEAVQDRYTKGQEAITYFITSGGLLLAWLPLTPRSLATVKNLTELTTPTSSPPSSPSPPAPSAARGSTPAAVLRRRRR
T1 chain 2: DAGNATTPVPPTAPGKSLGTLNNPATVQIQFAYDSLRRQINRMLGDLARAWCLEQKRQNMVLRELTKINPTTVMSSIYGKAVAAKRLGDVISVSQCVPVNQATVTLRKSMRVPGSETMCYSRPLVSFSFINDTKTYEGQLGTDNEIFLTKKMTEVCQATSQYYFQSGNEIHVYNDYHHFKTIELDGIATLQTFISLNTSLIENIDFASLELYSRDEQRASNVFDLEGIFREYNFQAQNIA
In words: SPR. Background: Surface plasmon resonance follows binding to a sensor surface in real time, without labels.

Test [4] has as its target T1, ectodomain of glycoprotein B (ect-gB), ….

Experimental findings from publication PMC9371650 (Proceedings of the National Academy of Sciences of the …, 2022) are described below.

The term stoichiometry N denotes a count of units in the complex or per binding partner. For “ectodomain of glycoprotein B (ect-gB), Epstein-Barr virus (domain or fragment)”, in test [1], the stoichiometry N is 3.

B1: 3A3, rabbit anti-EBV gB neutralizing monoclonal antibody (antibody, V domains shown)
VH: QSVKESGGRLVTPGTPLTLTCTVSGFSLSSYAMSWVRQAPGKGLEYIGVIYASGSTYYASWAKGRFTISRTATTVDLKITSPTTEDTATYFCGRGVSTNMWGPGTLVTVSS
VL: DLVMTQTPSSVSAAVGGTVTIKCQASQSLGGGLAWYQQKPGQRPKLLIYSASTLESGVPSRFRGSGSGTEFTLTISDLECADAATYYCQSAYGPTSNGLFNAFGGGTKVVIK
As for B1, in test [2], the “IC50 of neutralization of Akata-EBV infection of HNE1 epithelial cells” value stood at 0.08 µg/mL and the “IC50 of neutralization of CNE2-EBV infection of Akata B cells” value is 2.97 µg/mL.

B2: antigen binding fragment of 3A3 (3A3Fab) (Fab, V domains shown)
VH: B1 VH
VL: B1 VL
As a reminder, the Kd is the concentration at which binding is half-saturated. A high value points to lower affinity. Molecule B2 returned a Kd in test [3] of roughly 3.49 nM.

B3: 3A5, rabbit anti-EBV gB neutralizing monoclonal antibody (antibody, V domains shown)
VH: QSVKESGGRLVTPGTPLTLTCTVSGFSLSSYEMGWVRQAPGEGLEWIGTISTGGSSYYASWAKGRFTISRTSTTVDLKMTSLTTADTATYFCARGYGGYGIGAGYFNIWGPGTLVTVSS
VL: ALVMTQTPSSVSEPVGGTVTIKCQASQSISSYLAWYQRKPGQRPKLLIYGTSTLASGVPSRFIGSGSGTDYTLTISDLECDDAATYYCQQGFSTSNVYNSFGGGTKVDIK
For the molecule B3, in test [2], the “IC50 of neutralization of Akata-EBV infection of HNE1 epithelial cells” value turned out to be 0.31 µg/mL and the “IC50 of neutralization of CNE2-EBV infection of Akata B cells” value amounted to 4.9 µg/mL.

B4: antigen binding fragment of 3A5 (3A5Fab) (Fab, V domains shown)
VH: B3 VH
VL: B3 VL
Consider B4, for which the Kd in test [3] was roughly 3.93 nM.

B5: 1E12 (antibody, V domains shown)
VH: QSVKESGGRLVTPGTPLTLTCTVSGIDLSTYVMTWVRQAPGKGLECIGIIGYGGSTYYASWATGRFTISKTSTTVDLRMTSLTTEDTATYFCARGVSSNLYRGMNLWGQGTLVTVSS
VL: ALVMTQTPSPVSAAVGGTVSISCQSSPSVYSNYLSWYQQKPGQPPKLLIYETSKLESGVPSRFSGSGSGTQFTLTISGVQCDDAATYYCAGGYSGISDTFAFGGGTKVDIK
In the case of B5, the binding result in test [4] is on record as “binds”.
